Assay in all cases: sandwich ELISA, STAT protein coated at 0.5 µg/mL
Test [1] addresses T1, STAT 3 protein (UniProt P40763 1-770, limits assumed).
In a further test the target is T2, STAT 5a protein (UniProt P42229 1-794, limits assumed).
T2 sequence (looked up): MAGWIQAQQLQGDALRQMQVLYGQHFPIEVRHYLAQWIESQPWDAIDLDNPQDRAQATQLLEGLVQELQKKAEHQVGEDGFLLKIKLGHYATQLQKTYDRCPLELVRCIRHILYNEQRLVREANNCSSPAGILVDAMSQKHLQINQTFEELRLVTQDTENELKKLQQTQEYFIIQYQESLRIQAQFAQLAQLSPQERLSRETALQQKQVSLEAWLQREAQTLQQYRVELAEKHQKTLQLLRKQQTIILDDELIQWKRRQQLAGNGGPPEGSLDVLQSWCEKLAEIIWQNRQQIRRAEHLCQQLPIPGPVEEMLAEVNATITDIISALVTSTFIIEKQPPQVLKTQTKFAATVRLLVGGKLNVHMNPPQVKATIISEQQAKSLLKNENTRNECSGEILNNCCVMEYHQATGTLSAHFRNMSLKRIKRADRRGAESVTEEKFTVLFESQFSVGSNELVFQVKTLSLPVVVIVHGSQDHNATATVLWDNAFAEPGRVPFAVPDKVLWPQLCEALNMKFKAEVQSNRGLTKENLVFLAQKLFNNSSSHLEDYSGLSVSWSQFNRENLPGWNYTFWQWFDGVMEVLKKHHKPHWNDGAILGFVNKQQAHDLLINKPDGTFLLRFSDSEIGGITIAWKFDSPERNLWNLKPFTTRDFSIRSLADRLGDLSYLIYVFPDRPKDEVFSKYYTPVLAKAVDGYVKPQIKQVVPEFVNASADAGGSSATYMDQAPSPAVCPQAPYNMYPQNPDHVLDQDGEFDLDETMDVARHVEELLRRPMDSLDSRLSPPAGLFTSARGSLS

The target of test [2] is T3, STAT 1 protein (UniProt P42224 1-750, limits assumed).
T3 sequence (looked up): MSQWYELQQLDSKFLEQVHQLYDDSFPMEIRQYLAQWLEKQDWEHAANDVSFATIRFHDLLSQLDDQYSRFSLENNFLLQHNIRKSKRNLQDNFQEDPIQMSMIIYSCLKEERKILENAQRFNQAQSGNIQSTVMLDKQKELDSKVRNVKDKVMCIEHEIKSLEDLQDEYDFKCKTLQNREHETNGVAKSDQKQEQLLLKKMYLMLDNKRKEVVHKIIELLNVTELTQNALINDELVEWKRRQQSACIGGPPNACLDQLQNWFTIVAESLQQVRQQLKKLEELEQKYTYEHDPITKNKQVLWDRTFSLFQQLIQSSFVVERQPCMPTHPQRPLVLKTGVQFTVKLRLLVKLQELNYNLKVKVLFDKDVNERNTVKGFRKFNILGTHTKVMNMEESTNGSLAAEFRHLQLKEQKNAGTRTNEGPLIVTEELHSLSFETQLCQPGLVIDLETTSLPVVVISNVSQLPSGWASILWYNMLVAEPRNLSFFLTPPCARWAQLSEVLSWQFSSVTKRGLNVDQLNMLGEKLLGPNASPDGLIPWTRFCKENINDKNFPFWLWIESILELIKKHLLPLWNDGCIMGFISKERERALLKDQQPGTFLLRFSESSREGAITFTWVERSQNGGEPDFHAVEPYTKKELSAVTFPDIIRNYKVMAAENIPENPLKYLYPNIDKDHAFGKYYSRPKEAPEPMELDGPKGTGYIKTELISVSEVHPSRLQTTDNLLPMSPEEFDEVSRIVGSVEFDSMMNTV

Test [3] has as its target T4, STAT 2 protein (UniProt P52630 1-851, limits assumed).
Test [4] has as its target T5, STAT 4 protein (UniProt Q14765 1-748, limits assumed).
T5 sequence (looked up): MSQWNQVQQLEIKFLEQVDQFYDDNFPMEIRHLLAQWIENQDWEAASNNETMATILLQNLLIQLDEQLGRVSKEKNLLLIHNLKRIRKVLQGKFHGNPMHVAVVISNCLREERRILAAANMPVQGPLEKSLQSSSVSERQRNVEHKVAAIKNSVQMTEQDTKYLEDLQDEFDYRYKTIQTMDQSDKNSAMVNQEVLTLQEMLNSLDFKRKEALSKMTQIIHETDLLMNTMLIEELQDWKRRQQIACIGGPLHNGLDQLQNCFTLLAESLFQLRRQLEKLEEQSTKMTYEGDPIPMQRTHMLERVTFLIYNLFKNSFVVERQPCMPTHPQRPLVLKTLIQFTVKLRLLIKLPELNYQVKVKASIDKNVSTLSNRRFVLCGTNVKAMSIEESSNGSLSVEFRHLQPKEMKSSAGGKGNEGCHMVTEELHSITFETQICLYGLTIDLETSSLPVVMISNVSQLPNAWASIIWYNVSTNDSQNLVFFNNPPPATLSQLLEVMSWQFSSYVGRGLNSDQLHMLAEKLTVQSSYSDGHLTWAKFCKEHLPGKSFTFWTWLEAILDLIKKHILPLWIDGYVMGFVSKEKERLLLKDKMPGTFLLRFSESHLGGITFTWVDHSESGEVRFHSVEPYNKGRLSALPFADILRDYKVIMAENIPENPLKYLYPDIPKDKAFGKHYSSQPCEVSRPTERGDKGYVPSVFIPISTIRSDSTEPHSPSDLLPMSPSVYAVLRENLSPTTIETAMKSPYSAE

The target in test [5] is T1, STAT 3 protein. The source holds these as a separate data set.
Test [6] addresses T3, STAT 1 protein. This is another data set of the same source.
For test [7], the target named is T4, STAT 2 protein. The source holds these as a separate data set.
In test [8] the target is T5, STAT 4 protein. The source holds these as a separate data set.

Like-named read-outs stand apart in the source and are kept apart here.

T4 sequence (P52630 whole entry): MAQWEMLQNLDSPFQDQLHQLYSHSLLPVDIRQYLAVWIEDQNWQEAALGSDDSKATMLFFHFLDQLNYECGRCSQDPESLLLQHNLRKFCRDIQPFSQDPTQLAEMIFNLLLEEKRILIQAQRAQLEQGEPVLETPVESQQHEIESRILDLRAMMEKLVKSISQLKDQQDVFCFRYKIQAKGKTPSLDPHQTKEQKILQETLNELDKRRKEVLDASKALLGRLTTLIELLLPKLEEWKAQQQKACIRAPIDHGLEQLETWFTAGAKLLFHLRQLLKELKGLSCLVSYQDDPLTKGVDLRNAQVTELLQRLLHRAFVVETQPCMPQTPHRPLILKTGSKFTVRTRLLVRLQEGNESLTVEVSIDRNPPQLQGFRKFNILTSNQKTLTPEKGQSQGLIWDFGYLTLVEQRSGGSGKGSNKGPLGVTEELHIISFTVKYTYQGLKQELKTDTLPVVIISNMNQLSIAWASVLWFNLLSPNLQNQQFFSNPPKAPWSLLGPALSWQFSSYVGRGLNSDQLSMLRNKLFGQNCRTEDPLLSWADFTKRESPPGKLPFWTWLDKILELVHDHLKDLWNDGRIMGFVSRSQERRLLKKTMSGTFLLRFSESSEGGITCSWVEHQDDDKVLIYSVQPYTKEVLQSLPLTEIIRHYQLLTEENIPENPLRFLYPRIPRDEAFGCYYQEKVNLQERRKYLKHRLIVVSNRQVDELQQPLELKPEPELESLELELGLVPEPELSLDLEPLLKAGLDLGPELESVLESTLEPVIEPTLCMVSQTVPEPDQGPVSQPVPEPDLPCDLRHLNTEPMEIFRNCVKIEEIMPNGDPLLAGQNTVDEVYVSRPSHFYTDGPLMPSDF

B1: anti-STAT3 VHH13 (SEQ ID NO:3) sdAb (VHH)
VHH: HVQLVESGGGSVQAGGSLRLSCAASGANGGRSCMGWFRQVPGKEREGVSGISTGGLITYYADSVKGRFTISQDNTKNTLYLQMNSLKPEDTAMYYCATSRFDCYRGSWFNRYMYNSWGQGTQVTVSS
Regarding B1, the “Mean OD450” value with STAT 3 protein [1] came out at 2.76 OD450; with STAT 5a protein it was 3.32 OD450; with STAT 1 protein [2] it was 3.16 OD450; with STAT 2 protein [3], 3.34 OD450; with STAT 4 protein [4], 3.67 OD450; with STAT 3 protein [5] it was 3.67 OD450. In addition, the results for the “Mean OD450” value in the test with STAT 1 protein [6], with STAT 2 protein [7] and in the test with STAT 4 protein [8] were 0.026 OD450, 0.023 OD450 and 0.083 OD450, respectively.

For the origin of these results see patent publication US20170327598A1 (published 2017).
